Measurements: patent publication US20140274782A1 (Stanford University, published 2014)

Experiments:
Assay in all cases: ProtoArray, GST-treated control array;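 also: human protein microarray (about 9500 recombinant proteins) incubated overnight with GST alone plus SAM cofactor as the negative control for G9a SET domain methylation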
[1] = molecular target: CDC2-cell division cycle 2, G1 to S and G2 to M (CDC2), transcript variant 1 (human, UniProt P06493 1-297)
Procedure: (§1) Briefly, a ProtoArray (Invitrogen, version 5.0) was incubated overnight with 50 μg of GST or recombinant GSTtagged G9a SET domain and the cofactor SAM.
(§2) Arrays were analyzed using GenePix Pro 6.1 software (Molecular Devices) and feature values were assigned to proteins using the array list provided by Invitrogen. We designated the following criteria for “hits”: GST array signal-to-noise ratio (SNR) less than or equal to 1.5, G9a array SNR greater than or equal to 10, and a difference between the G9a array SNR and the GST array SNR of greater than or equal to 12. Hits were individually visually validated. Proteins were removed from the list of potential substrates if irregular array features appeared to interfere with the array spots or SNR calculations.
(§3) Protein arrays bearing almost 9500 recombinant human proteins were methylated using GST-tagged recombinant G9a SET domain or GST alone as a control as shown in FIG. 4. […] Results were filtered for proteins scoring a GST array signal-to-noise ratio (SNR) less than or equal to 1.5, a G9a array SNR greater to or equal to 10, and a difference between the G9a and GST SNRs of greater than or equal to 12. Subsequent proteins were individually inspected for irregular array features.

[2] = molecular target: T1, RDH11-retinol dehydrogenase 11 (all-trans/9-cis/11-cis) (RDH11) (human, UniProt Q8TC12 1-318, limits assumed)
T1 sequence (looked up): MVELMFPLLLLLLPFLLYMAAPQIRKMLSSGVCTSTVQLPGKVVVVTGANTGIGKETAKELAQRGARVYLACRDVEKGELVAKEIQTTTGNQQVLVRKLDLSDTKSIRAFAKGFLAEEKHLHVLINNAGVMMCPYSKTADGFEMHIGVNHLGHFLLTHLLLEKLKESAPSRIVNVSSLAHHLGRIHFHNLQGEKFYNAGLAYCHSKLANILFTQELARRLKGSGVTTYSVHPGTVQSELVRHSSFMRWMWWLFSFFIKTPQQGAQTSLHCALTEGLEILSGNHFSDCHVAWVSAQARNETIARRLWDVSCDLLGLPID
Procedure: as §1, §2, §3

[3] = molecular target: T2, GNPTAB-N-acetylglucosamine-1-phosphate transferase, alpha and beta subunits (GNPTAB) (human, UniProt Q3T906 1-1256, limits assumed)
T2 sequence (looked up): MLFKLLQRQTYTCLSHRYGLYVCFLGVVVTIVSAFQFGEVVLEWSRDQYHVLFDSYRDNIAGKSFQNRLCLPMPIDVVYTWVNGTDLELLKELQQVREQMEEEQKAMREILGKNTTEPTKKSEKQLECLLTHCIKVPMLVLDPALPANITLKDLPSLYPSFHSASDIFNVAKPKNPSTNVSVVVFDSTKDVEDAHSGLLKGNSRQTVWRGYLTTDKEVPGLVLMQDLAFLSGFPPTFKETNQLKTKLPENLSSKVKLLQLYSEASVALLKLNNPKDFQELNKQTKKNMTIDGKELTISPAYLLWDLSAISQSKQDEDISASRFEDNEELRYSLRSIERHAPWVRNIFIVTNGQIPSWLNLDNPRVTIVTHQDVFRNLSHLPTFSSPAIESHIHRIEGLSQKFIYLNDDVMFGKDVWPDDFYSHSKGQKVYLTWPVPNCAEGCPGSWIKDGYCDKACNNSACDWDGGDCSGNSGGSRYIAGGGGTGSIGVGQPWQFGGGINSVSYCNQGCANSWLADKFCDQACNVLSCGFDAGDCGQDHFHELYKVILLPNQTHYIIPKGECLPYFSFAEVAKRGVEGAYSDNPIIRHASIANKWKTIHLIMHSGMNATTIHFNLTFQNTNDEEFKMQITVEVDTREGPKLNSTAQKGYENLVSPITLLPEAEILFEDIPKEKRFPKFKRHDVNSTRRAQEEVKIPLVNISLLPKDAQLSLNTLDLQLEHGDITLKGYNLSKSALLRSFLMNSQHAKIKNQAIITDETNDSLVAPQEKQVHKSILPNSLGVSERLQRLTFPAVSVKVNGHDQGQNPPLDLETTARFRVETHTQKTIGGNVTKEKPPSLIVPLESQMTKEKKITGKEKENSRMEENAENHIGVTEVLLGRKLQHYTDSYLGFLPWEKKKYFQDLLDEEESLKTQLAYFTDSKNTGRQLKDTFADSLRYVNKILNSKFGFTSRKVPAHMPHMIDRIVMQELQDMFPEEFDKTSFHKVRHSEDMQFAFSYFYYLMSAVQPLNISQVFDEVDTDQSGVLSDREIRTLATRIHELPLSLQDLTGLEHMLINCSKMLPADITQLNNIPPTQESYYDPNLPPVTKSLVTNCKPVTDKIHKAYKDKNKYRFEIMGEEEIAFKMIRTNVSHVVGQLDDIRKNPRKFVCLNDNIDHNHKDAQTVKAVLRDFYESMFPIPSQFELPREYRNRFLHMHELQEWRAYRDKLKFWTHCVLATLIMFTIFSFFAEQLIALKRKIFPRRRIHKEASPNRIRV
Procedure: as §1, §2, §3

[4] = molecular target: T3, SMAP1-stromal membrane-associated protein 1 (SMAP1) (human, UniProt Q8IYB5 1-467, limits assumed)
T3 sequence (looked up): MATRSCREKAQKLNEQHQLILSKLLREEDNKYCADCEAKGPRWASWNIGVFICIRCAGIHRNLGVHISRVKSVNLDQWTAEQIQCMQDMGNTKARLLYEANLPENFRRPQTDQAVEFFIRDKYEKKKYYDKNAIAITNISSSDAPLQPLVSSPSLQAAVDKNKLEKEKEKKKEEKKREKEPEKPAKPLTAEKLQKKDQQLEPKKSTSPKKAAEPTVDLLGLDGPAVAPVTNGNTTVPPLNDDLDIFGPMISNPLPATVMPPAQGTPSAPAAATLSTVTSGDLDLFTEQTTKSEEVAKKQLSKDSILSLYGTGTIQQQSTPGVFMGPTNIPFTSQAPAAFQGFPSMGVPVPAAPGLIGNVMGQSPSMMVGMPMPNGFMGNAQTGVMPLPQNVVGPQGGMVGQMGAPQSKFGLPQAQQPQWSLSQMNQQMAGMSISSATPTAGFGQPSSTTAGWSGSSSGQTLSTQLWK
Procedure: as §1, §2, §3

[5] = molecular target: T4, STK17B-Serine/threonine-protein kinase 17B (human, UniProt O94768 1-372)
T4 sequence (looked up): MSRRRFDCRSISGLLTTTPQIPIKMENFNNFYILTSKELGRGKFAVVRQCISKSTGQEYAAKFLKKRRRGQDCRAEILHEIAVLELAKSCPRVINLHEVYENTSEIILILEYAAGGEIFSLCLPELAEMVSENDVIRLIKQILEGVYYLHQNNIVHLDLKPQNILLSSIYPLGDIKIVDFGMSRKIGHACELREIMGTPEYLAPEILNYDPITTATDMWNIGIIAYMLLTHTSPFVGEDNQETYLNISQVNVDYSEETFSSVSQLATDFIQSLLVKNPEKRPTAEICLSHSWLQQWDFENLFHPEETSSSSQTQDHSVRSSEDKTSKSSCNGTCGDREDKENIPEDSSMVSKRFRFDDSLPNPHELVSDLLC
Procedure: as §1, §2, §3

[6] = molecular target: T5, GPX1-glutathione peroxidase 1 (GPX1) (human, UniProt P07203 1-203, limits assumed)
T5 sequence (looked up): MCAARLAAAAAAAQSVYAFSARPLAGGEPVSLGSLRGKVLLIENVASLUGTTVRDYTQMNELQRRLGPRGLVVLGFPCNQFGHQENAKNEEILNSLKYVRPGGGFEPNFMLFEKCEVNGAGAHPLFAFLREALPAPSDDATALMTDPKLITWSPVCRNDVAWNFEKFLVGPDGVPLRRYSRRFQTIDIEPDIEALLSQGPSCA
Procedure: as §1, §2, §3

Sequence of CDC2-cell division cycle 2, G1 to S and G2 to M (CDC2), transcript variant 1 (P06493 whole entry, change not shown): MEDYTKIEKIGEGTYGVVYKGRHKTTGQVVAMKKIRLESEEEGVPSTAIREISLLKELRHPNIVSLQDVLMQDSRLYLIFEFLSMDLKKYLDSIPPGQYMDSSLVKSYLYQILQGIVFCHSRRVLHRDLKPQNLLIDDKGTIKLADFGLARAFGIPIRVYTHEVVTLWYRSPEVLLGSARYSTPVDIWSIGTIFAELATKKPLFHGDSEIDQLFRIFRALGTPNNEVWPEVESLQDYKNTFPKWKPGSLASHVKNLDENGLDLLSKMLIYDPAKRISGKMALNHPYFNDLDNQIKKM

B1: 3× Flag-3×MBT (designed binder)
chain: EEWSSSQPATGEKKECWSWESYLEEQKAITAPVSLFQDSQAVTHNKNGFKLGMKLEGIDPQHPSMYFILTVAEVCGYRLRLHFDGYSECHDFWVNANSPDIHPAGWFEKTGHKLQPPKGYKEEEFSWSQYLRSTRAQAAPKHLFVSQSHSPPPLGFQVGMKLEAVDRMNPSLVCVASVTDVVDSRFLVHFDNWDDTYDYWCDPSSPYIHPVGWCQKQGKPLTPPQDYPDPDNFCWEKYLEETGASAVPTWAFKVRPPHSFLVNMKLEAVDRRNPALIRVASVEDVEDHRIKIHFDGWSHGYDFWIDADHPDIHPAGWCSKTGHPLQPPLGPREPSSASPGG
notes: also called Flag-tagged 3×MBT; 3xFlag-3xMBT; not shown: made by PreScission cleavage of GST-3× Flag-3×MBT
- GST Average SNR [1]: -0.696
- GST Average SNR [2]: 0.0685
- GST Average SNR [3]: 1.15
- GST Average SNR [4]: 1.37
- GST Average SNR [5]: 0.575
- GST Average SNR [6]: 1.22
